One molecule from patent publication US20220127316A1 (University of Pennsylvania, published 2022) can be followed below.

The experiment has as its target T1, recombinant human GFRα-like His-tag receptor (R&D 9647-GR-050) (human, UniProt Q6UXV0 19-351).
T1 construct: Bought protein, captured on a Pierce nickel coated plate at 0.1 µg/mL; also called GFRAL receptor; GDNF family receptor alpha-like; not shown: His-tag
T1 sequence (looked up): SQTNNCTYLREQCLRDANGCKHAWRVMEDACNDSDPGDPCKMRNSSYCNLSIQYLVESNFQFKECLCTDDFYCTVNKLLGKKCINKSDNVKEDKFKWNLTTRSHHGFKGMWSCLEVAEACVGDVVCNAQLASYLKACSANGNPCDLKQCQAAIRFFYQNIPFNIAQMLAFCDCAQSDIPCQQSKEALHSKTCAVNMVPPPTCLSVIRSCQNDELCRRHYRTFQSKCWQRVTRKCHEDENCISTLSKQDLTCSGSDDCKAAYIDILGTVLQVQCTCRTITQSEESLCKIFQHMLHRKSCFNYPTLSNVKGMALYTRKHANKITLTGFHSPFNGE
The experiment can be described thus: ELISA; His-tagged GFRAL captured on nickel coated plate, GDF15 titrated 100 to 0.005 ng/mL, detected with anti-GDF15 primary antibody. On the procedure: To validate binding of the synthesized peptides to the GFRAL receptor, an ELISA assay was developed to determine the binding affinity of the peptides for their receptor. The primary antibody (Abcam ab206414) was diluted to 1 μg/mL. The secondary antibody was diluted by placing 5 μL into 10 mL assay buffer. GDF15 was run at concentrations of 100 ng/mL to 0.005 ng/mL. The recombinant human GFRα-like His-tag receptor (R&D 9647-GR-050) was added to the Pierce™ nickel coated plate (ThermoFisher Scientific 15442) at 0.1 μg/mL in a total volume of 100 μL.
Background: In an ELISA, binding on a coated surface is turned into a signal by an enzyme label.

B1: Recombinant human GDF-15 (rhGDF15) (ligand, UniProt Q99988 197-308, looked up)
chain: ARNGDHCPLGPGRCCRLHTVRASLEDLGWADWVLSPREVQVTMCIGACPSQFRAANMHAQIKTSLHRLKPDTVPAPCCVPASYNPMVLIQKTDTGVSLQTYDDLLAKDCHCI
notes: Run at 100 ng/mL to 0.005 ng/mL in the ELISA and detected with primary antibody Abcam ab206414; also called growth and differentiation factor 15; MIC-1
Take B1: the dissociation constant Kd was determined as 1.03 ng/mL.

A word on the Kd: it is the free concentration of one partner at which half of the binding sites on the other are occupied at equilibrium, for simple one-to-one binding.
